Results published in the supplement of paper PMC11865577.

Assays:
Test in all cases: pull-down binding Z-score (relative to library population); higher = stronger binding
Settings in all cases: RNA library: Library-2
[1] = test system: TO-3-N3-2 (biotin conjugate)
Summary of the method: (§1)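 Streptavidin beads with 100 pmol of biotin-conjugated small molecule were incubated for 60 min at 25 °C with 1 μg of heat-folded Cy5- or Cy3-end-labelled RNA library in phosphate/NaCl/KCl buffer. Bound RNA was eluted in hot SDS after three washes and hybridised to a DNA barcode microarray at 55.5 °C for 20 h. Each binding score is a library-referenced Z-score, computed after beads-only subtraction and a trimmed mean of barcoded replicate probes.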

[2] = test system: TO-3-N3 (biotin conjugate)
Summary of the method: as §1

[3] = test system: TO-N3-2 (biotin conjugate)
Summary of the method: as §1

TO-N3 (biotin conjugate) = test system: TO-N3 (biotin conjugate)
Summary of the method: as §1

Sequence | pull-down binding Z-score [1] | pull-down binding Z-score [2] | pull-down binding Z-score [3] | pull-down binding Z-score (TO-N3 (biotin conjugate))
GCGCUGCCAGAAACUGGCUUGAGCGC [bulge-UUG] | 0.543 | 1.04 | 0.434 | 0.932
GCGCUGCCAGAAACUGGCUUUAGCGC [bulge-UUU] | -0.158 | -0.00635 | -0.562 | -0.24
GCGCUUCAGCGUUCUUCGGAAUGUCGCGC | -0.453 | -0.429 | -0.654 | -0.787
GCGCUUUAGGUCUACACGGGCCGAAGCUAACGCGUUAAGCGC [3-way model-5_mrRNA] | 0.0632 | 0.146 | 0.245 | 0.0607
GCUAAAGAUACUACUGAAGCCUUUGAAAAAAUGGUUUCACUACUUUCUGUUUUGC [SHAPE_invitro_SARS-CoV-2_Motif_217] | 0.0624 | 0.0938 | -0.245 | 0.166
GCUAAAUUGUUACAUAAACCUAUUGUUUGGCAUGUUAACAAUGC [SHAPE_invitro_SARS-CoV-2_Motif_124] | -0.265 | -0.783 | -1.24 | -0.96
GCUAAAUUGUUACAUAAACCUAUUGUUUGGCAUGUUAACAAUGCAACUAAUAAAGCCACGUAUAAACCAAAUACCUGGUGUAUACGUUGUCUUUGGAGC | -0.0887 | -1.1 | -1.05 | -1.4
GCUAACAAACAUGCUGAUUUUGACACAUGGUUUAGCCAGCGUGGUGGUAGU | 0.101 | -0.205 | 0.519 | 0.157
GCUAGAAAAUCAGC [SHAPE_invivo_SARS-CoV-2_Motif_531] | 0.246 | -0.186 | -0.164 | -0.0963
GCUAGCUCUUGGAGGUUCCGUGGCUAUAAAGAUAACAGAACAUUCUUGGAAUGCUGAUCUUUAUAAGCUCAUGGGACACUUCGCAUGGUGGACAGC | 0.121 | 0.837 | 0.936 | 0.974
GCUAGUCUUAAUGGAGUCACAUUAAUUGGAGAAGC | 0.112 | 0.378 | 0.337 | 0.474
GCUAGUGGGGGACAACCAAUCACUAAUUGUGUUAAGAUGUUGUGUACACACACUGGU | 0.649 | 0.789 | 0.564 | 1.03
GCUAUAUGAUGC [IAV_invivo_PA_3_Motif_14+IAV_invivo_PA_3_Motif_14] | -0.212 | -0.0014 | -0.634 | -0.106
GCUAUCUAACCUUAACUUGCCUGGUUGUGAUGGU [SHAPE_invivo_SARS-CoV-2_Motif_361] | 0.311 | 0.68 | 0.466 | 0.716
GCUAUGCAAAUGGC | -0.527 | -0.537 | -0.948 | -0.847
GCUAUGGGUAUUAUUGCUAUGUCUGCUUUUGCAAUGAUGUUUGUCAAACAUAAGCAUGCAUUUCUCUGUUUGUUUUUGUUACCUUCUCUUGCCACUGUAGC | -0.526 | -0.966 | -0.573 | -0.98
GCUCACCGUGCCCAGUGAGC [IAV_invivo_M1_M2_7_Motif_5+IAV_invivo_M1_M2_7_Motif_5] | -0.154 | 0.297 | -0.587 | 0.0761
GCUCAGGAUGGUAAUGCUGCUAUCAGC | -0.00388 | -0.137 | 1.05 | 0.203
GCUCUACAAGAUGCUUAUUACAGAGC | 0.467 | 1.83 | -0.0957 | 1.52
GCUCUCUGAUGC [IAV_invivo_NP_5_Motif_10+IAV_invivo_NP_5_Motif_10] | -0.589 | -0.607 | -0.464 | -0.672
GCUGAAAUUGUUGACACUGUGAGUGCUUUGGUUUAUGAUAAUAAGCUUAAAGCACAUAAAGACAAAUCAGC | -0.129 | -0.842 | -0.342 | -0.634
GCUGACACUACUGAUGCUGUCCGUGAUCCACAGACACUUGAGAUUCUUGACAUUACACCAUGUUCUUUUGGUGGUGUCAGU [SHAPE_invivo_SARS-CoV-2_Multi_58_ComplexLevel_1] | -0.3 | -0.0653 | 0.237 | 0.456
GCUGAGGCUUCUAAGAAGCCUCGGC | -0.475 | -0.572 | -1.43 | -1.05
GCUGAGUUGCCAUUCAGC [IAV_invivo_NA_6_Motif_18+IAV_invivo_NA_6_Motif_18] | -0.204 | -0.302 | -0.226 | -0.304
GCUGCACAAAAAGC [IAV_invivo_NP_5_Motif_13+IAV_invivo_NP_5_Motif_13] | -0.544 | -0.79 | -0.23 | -1.08

Sequence | pull-down binding Z-score [1] | pull-down binding Z-score [2] | pull-down binding Z-score [3] | pull-down binding Z-score (TO-N3 (biotin conjugate))
GCUGGCCUUGAAGCCCCUUUUCUCUAUCUUUAUGCUUUAGUCUACUUCUUGCAGAGUAUAAACUUUGUAAGAAUAAUAAUGAGGCUUUGGCUUUGC | -0.413 | -0.79 | -0.575 | -0.969
GCUGGUAAUGUUCAACUCAGGGUUAUUGGACAUUCUAUGC [SHAPE_invivo_SARS-CoV-2_Motif_203] | -0.104 | -0.362 | -0.0925 | -0.313
GCUGGUCUGACUCACAUGAUGAUCUGGC [IAV_invivo_NP_5_Motif_8+IAV_invivo_NP_5_Motif_8] | -0.265 | -0.624 | 0.653 | -0.454
GCUGGUGCACUUGCCAGU [IAV_invivo_M1_M2_7_Motif_8+IAV_invivo_M1_M2_7_Motif_8] | -0.545 | -0.522 | -0.0123 | -0.408
GCUGUAGUGUUACUAAUCCUUAUGACAGC | -0.242 | -0.113 | -0.349 | -0.197
GCUGUGAGUUGGAUACUUACCUG [U1snRNP5ss-13] | 0.194 | 0.0032 | 1.38 | 0.947
GCUGUUGGUACCAAUUUACCUUUACAGC [SHAPE_invitro_SARS-CoV-2_Motif_335] | -0.037 | 0.416 | -0.561 | 0.215
GCUGUUUAAUAGGGGCUGAACAUGUCAACAACUCAUAUGAGUGUGACAUACCCAUUGGUGCAGGUAUAUGCGCUAGUUAUCAGACUCAGACUAAUUCUCCUCGGC | 0.183 | -0.351 | -0.00417 | 0.298
GCUUCAAGAGAGC | -0.171 | -0.0727 | -0.212 | -0.0808
GCUUCCACAAGUGCUUUUGUGGAAACUGUGAAAGGUUUGGAUUAUAAAGCAUUCAAACAAAUUGUUGAAUCCUGUGGUAAUUUUAAAGUUACAAAAGGAAAAGC | -0.339 | -0.475 | -0.348 | -0.508
GCUUCCACUGAGAAGU [DMSMaPseq_invitro_SARS-CoV-2_Motif_384] | -0.576 | -0.836 | -1.03 | -1.1
GCUUCUAGAAAGUGAACUCGUAAUCGGAGCUGUGAUCCUUCGUGGACAUCUUCGUAUUGCUGGACACCAUCUAGGACGC | 0.191 | -0.191 | 1.23 | 0.335
GCUUGAAGUGGAGC [IAV_invivo_NS1_NEP_8_Motif_14+IAV_invivo_NS1_NEP_8_Motif_14] | -0.23 | -0.454 | 0.386 | -0.23
GCUUGCAUACGUAGACCAUUCUUAUGUUGUAAAUGCUGUUACGACCAUGUCAUAUCAACAUCACAUAAAUUAGUCUUGUCUGUUAAUCCGUAUGUUUGCAAUGC [DMSMaPseq_invitro_SARS-CoV-2_Motif_294] | -0.304 | -0.654 | -0.437 | -0.546
GCUUGGAGAAAAGC [SHAPE_invitro_SARS-CoV-2_Motif_326] | -0.278 | -0.536 | -0.491 | -0.705
GCUUGUCACACCGUUUCUAUAGAUUAGCUAAUGAGUGUGCUCAAGU | -0.356 | -0.601 | 0.588 | -0.0415
GCUUUAGUCUACUUCUUGCAGAGUAUAAACUUUGUAAGAAUAAUAAUGAGGC [SHAPE_invitro_SARS-CoV-2_Motif_467] | -0.169 | 0.0529 | -0.561 | 0.0166
GCUUUCUUUGGC [IAV_invivo_NS1_NEP_8_Motif_2+IAV_invivo_NS1_NEP_8_Motif_2] | -0.505 | -0.0308 | -1.09 | -0.43
GCUUUGAUAUGGAACGUUAAAGAUUUCAUGUCAUUGU | -0.217 | -0.179 | -0.395 | -0.204
GCUUUGUCCAAAAUGCCCUUAAUGGGAACGGGGAUCCAAAUAACAUGGACAAAGC [IAV_invivo_M1_M2_7_Motif_6+IAV_invivo_M1_M2_7_Motif_6] | 0.353 | 0.0624 | -0.236 | -0.155
GGAAAUGAUUCC [IAV_invivo_PB2_1_Motif_4+IAV_invivo_PB2_1_Motif_4] | -0.712 | -0.59 | -1.3 | -1.05
GGAACCUAGUAAUAGGUUUCC [DMSMaPseq_invitro_SARS-CoV-2_Motif_479] | -0.0496 | 0.7 | -0.779 | 0.439
GGAAGACCUUAAAUUCCCUCGAGGACAAGGCGUUCC | -0.381 | -0.756 | -0.19 | -0.658
GGAAGAGACAGGUACGUUAAUAGUUAAUAGCGUACUUCUUUUUC | -0.193 | -0.226 | -0.494 | -0.585
